The results in this text go back to PMC3386289, “Isolation of Human Mitotic Protein Phosphatase Complexes: Identification of a Complex between Protein Phosphatase 1 and the RNA Helicase Ddx21” (PLoS ONE, 2012).

This assay deals with T1, His6-Ddx21_(motif2) (human, UniProt Q9NR30 1-783, motif2 (aa440–444) -RTIIF- to -RTAIA-).
T1 construct: Site-directed mutagenesis of pRSET-A-DDX21; also called mut2; (aa440–444: motif2); source: E. coli DH5α, purified (SP-Sepharose, Ni-NTA)
T1 sequence (looked up): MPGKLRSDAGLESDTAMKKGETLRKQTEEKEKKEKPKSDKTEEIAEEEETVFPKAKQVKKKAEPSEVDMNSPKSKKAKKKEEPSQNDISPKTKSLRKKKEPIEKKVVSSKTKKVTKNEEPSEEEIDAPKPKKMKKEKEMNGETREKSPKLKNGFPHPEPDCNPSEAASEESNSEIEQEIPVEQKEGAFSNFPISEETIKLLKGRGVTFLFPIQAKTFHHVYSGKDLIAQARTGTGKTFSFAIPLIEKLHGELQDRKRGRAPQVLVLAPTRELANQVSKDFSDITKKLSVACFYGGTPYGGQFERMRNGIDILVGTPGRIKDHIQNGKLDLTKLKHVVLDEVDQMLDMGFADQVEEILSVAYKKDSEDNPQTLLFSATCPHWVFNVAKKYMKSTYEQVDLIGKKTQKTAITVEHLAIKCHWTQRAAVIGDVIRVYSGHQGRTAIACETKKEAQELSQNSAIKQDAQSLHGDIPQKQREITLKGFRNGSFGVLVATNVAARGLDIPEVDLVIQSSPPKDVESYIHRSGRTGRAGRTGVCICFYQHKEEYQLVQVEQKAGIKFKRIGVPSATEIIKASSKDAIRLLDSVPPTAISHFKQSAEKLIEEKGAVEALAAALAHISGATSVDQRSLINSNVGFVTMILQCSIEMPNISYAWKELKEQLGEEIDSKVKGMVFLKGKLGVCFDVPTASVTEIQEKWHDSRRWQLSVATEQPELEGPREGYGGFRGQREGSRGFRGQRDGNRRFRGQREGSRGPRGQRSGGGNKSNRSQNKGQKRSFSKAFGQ
As to the kind of experiment: pull-down; 300 ng PP1 and 200 ng His6-Ddx21 in 25 mM Tris pH 7.5, 5% glycerol, 150 mM NaCl, 0.5% Igepal630, 10 mM imidazole, 4°C; Ni-NTA beads; wash 450 mM NaCl, 0.5% Tween-20 (γ: 500 mM NaCl, 0.75% Tween-20); western blot. The following applies: both partners purified. (A western blot detects proteins with antibodies after separation by electrophoresis.)

B1: PP1β, bacterially expressed and purified (enzyme, human, UniProt P62140 1-327, looked up)
chain: MADGELNVDSLITRLLEVRGCRPGKIVQMTEAEVRGLCIKSREIFLSQPILLELEAPLKICGDIHGQYTDLLRLFEYGGFPPEANYLFLGDYVDRGKQSLETICLLLAYKIKYPENFFLLRGNHECASINRIYGFYDECKRRFNIKLWKTFTDCFNCLPIAAIVDEKIFCCHGGLSPDLQSMEQIRRIMRPTDVPDTGLLCDLLWSDPDKDVQGWGENDRGVSFTFGADVVSKFLNRHDLDLICRAHQVVEDGYEFFAKRQLVTLFSAPNYCGEFDNAGGMMSVDETLMCSFQILKPSEKKAKYQYGGLNSGRPVTPPRTANPPKKR
notes: Protein phosphatase 1 catalytic subunit, isoform β, human; also called protein phosphatase 1 beta
As for B1, the binding result is “binds”.
